This series is described as follows: soluble on expression in E. coli; label from the status in PepcDB or PDB records.
As to “MAHHHHHHMCSVLILASTCRRRFSNVHLTPAGTVLNSNSALISRRINRRKMKNCNNNDLLKVLKMETTYNELPAHNLLMSSKNDINKLFDYINKNEELSKLMNSCGTYVYLKYLGVVIFSIKENVQISHLSEFIQYLLNKNVFGSSTFTKIRKSKDSDTYNAPFIICLVLIVRVCLSPFLNNILYCHMQNEIITFIIFKPTKKSVHCFFSFFTILL”, the “soluble on expression in E. coli” value is listed as “soluble”.

As to “MDPTRGLCALSTHDLAKFHSLPPARKAAGKRAHLRCYSKLLSLKSWEQLASFLSLPPGPTFTDFRLFFEVTLGRRIADCVVVALQPYPRCYIVEFKTAMSNTANPQSVTRKAQRLEGTAQLCDCANFLRTSCPPVLGSQGLEVLAALVFKNQRSLRTLQVEFPALGQKTLPTSTTGLLNLLSRWQDGALRARLDRPRPTAQGHRPRTHVGPKPSQLTARVPRSARAGRAGGRKGQVGAVGQVCPGAQK”, the “soluble on expression in E. coli” value is given as “not soluble”.

In the case of “MFQLPILNFSPQQVAGVCETLEESGDVERLGRFLWSLPVAPAACEALNKNESVLRARAIVAFHGGNYRELYHILENHKFTKESHAKLQALWLEAHYQEAEKLRGRPLGPVDKYRVRKKFPLPRTIWDGEQKTHCFKERTRHLLREWYLQDPYPNPSKKRELAQATGLTPTQVGNWFKNRRQRDRAAAAKNRLQQQVLSQGPGRVLRSEGEGTPEVLGVASSPAASLSSKAATSAISITSSDSECDI”, the “soluble on expression in E. coli” value is listed as “soluble”.

In the case of “MHKDIKLVKETEIRKPIGSPFIVYFSSISNNTHRFIEKLGFQHKRIPVDITQSITVSNEYVLICPTYSGGGNQVEGAVPKQVIQFLNNKHNRELCRGVIASGNTNFGDTFCLAGTVISKKLNVPLLYQFELLGTKNDVEQTQKIIANFFQNSN”, the “soluble on expression in E. coli” value is on record as “soluble”.

As to “MDVSAYPFFRRDMSWLSFNERVLMEAADRTLPVYDRIKFLSIFSSNLEEFYTVRVAYHQAVLQKRRDRSEAEEDSDADAHILQAIRETVIRQDELYYRIFYDQILPTLEEHGIRLRTHAPTHPDHKAYLRRFFHEEIFPLLYPMLLLPSKVRTFIRSGRVYLAVRLKEKETDEAYSYALLNVPTDGLPRFVELPRLQTDTFYYYSFLEDIIKEHLDVVFPGYEVMDSYSIKVSRDADLLLDAQRPEDLPGEIRKKVKTRKLGAPTRFMYDGRMPDEVLRYICSSCDIDPEEAIRSGNYVNLQDLAMLPNPFAPRLETLTPEPLLSKHLEQAPSLMEGIRRKDYLIHVPYYTYDYVVRLLMEAAISPDVSEIRLTQYRVAENSSIISALEAAAQSGKKVSVFVELKARFDEENNLRLSERMRRSGIRIVYSMPGLKVHAKTALILYHTPAGERPQGIALLSTGNFNETTARIYSDTTLMTANTDIVHDVYRLFRILDGDPEPARFSRLLVARYNMGEAITNLIEREIENVKRGKRGYMLLKMNGLQDKNVITQLYRASEAGVEIDLIVRGICCLVPDMPQSRNIRVTRLVDMYLEHSRIWCFHNGGKEEVFISSADWMKRNLYNRIETACPVLDPALRREIIDILEIQLRDNIKACRIDSSLNNIYKHNSDEKPVRAQAAIYRYLKGKEEATPAAK”, the “soluble on expression in E. coli” value was “not soluble”.

Consider “GSPPWRGRREQCLLPPEDSRLWQYLLSRSMREHPALRSLRLLTLEQPQGDSMMTCEQAQLLANLARLIQAKKALDLGTFTGYSALALALALPADGRVVTCEVDAQPPELGRPLWRQAEAEHKIDLRLKPALETLDELLAAGEAGTFDVAVVDADKENCSAYYERCLQLLRPGGILAVLRVLWRGKVLQPPKGDVAAECVRNLNERIRRDVRVYISLLPLGDGLTLAFKI”, for which the “soluble on expression in E. coli” value is reported as “soluble”.

For “MSATFSPTAVTDLKDIQDVERLMGRIKEARAAVGEVIFGQEAVVDEVLVTLLAGGHALLIGLPGLAKTKLVQTLGTVVGLRDKRVQFTPDLMPADILGSEVLEEDAAGQRGFRFLPGPVFCQLLMADEINRASPRTQSALLQAMQEHRVSVAGHYHDLPAPFHVLATQNPIEQEGTYPLPEAQLDRFLMQVDVGYPDEAAERRMLAATTGVHQPEARAVMTPAELQAAQALVRRVPVGDSVVDAILSLVRAGRPESSPLPEVRDWVAWGPGPRASQALTLAVRARALLDGRFAPSIEDVIALAHPILRHRMALSFGARADGVTLGRVVDRLIDKIA”, the “soluble on expression in E. coli” value is reported as “soluble”.

With “MAILITGGAGYIGSHTCVELLNNNYKIIVVDNLSNSSIESLNRVKEITGKQFEFYKENVLNREKMNEIFLENNIEAVIHFAGFKAVGESTTTPLAYYYNNIISAIVLCDVMQKHNVKNFIFSSSATVYGIPKTLPITEEFPLSVTNPYGQTKLMIEQIMRDVAKADDEWSIALLRYFNPFGAHQSGRIGEDPNGIPNNLMPYVTQVAVGKLKELNIFGNDYPTKDGTGVRDYIHVVDLAKGHVKALEKVLKTKGIEAYNLGTGKGYSVLEMVKAFEKVSGKKIPYKVIGRRPGDVAICFADVSKAKRELGWEAEYGLEEMCVDSWRWQVNNKNGYQMI”, the “soluble on expression in E. coli” value is given as “not soluble”.

In the case of “ASGRRAPRTGLLELRCGAGSGAGGERWQRVLLSLAEDALTVSPADGEPGPEPEPAQLNGAAEPGAAPPQLPEALLLQREVSPYFKNSAGGTSVGWDSPPASPLQRQPSSPGPQPRNLSEAKHVSLKMAYVSRRCTPTDPEPRYLEICAADGQDAVFLRAKDEASARSWAGAIQAQIGT”, the “soluble on expression in E. coli” value is “soluble”.

For “MGSSHHHHHHSSGLVPRGSHMAAPIRFFELNTGAKLPCVGLGTYAMVATAIEQAIKIGYRHIDCASIYGNEKEIGGVLKKLIGDGFVKREELFITSKLWSNDHLPEDVPKALEKTLQDLQIDYVDLYLIHWPASLKKESLMPTPEMLTKPDITSTWKAMEALYDSGKARAIGVSNFSSKKLTDLLNVARVTPAVNQVECHPVWQQQGLHELCKSKGVHLSGYSPLGSQSKGEVRLKVLQNPIVTEVAEKLGKTTAQVALRWGLQTGHSVLPKSSSGARLKENLDVFDWSIPEDLFTKFSNIPQEKFCRATEFAHETHGFYKTIEELWDGEI”, the “soluble on expression in E. coli” value was “soluble”.

“MFALEVLALERRTALLLGASGLVGGELLKLLLQSDLYRCVTIFVRTPLPVEHEKLQQVVVDFARLESYERYFYVDDVFCCLGTTRKKAKTKQQFIQVDYEYTLRAAALAEKCRAKSFLTVSSVGANPCSPFFYQRVKGETEEALQRLSIPSLHIFRPSLLVGKRREFRLGEALGGWLLCRLPFLFVGKWKKYKPVDAHQLALAMFYRAASATSGVHIYECDELARIS”: the “soluble on expression in E. coli” value is reported as “not soluble”.

Take “MEALKIALLGGGTVGSAFYNLVLERAEELSAFGVVPRFLGVLVRDPRKPRAIPQELLRAEPFDLLEADLVVEAMGGVEAPLRLVLPALEAGIPLITANKALLAEAWESLRPFAEEGLIYHEASVMAGTPALSFLETLRGSELLELHGILNGTTLYILQEMEKGRTYAEALLEAQRLGYAEADPTLDVEGIDAAHKLTLLARLLVDPGFPFAEVEAQGIARLTPEVLQKAEARGERVRLVASLFGEGGRWRAAVAPRRLPQDHPLARARGNALWVRARPLGEAFVTGPGAGGGATASGLFADLLRFLSGAPGHLPAPRARPPLEEGSPWPGVE”: the “soluble on expression in E. coli” value was “soluble”.

For “MIGKCTHVVDCRETMGMGEGGGIAQRGTFAQCGSEVLAVAMSPGRRHITKPVCEITFALREANIMTSTIVLNAGAGVPQDAPSAGAGSLFGLTPAEVEQMKRHKLLVVHLGGVKNHITYKARLILRNVDRPCIIICEYPVDFEDFAKIGVRTRAVMPDEPKTKGTIVDIVSGVIRGETCPQEKLDEIIRKVKLALGGALEHHHHHH”, the “soluble on expression in E. coli” value is “not soluble”.

Turning to “MSLINLWPLLLPAAAWSGWWLANRSNSNKDAHVHNRLSREYVVGLNYLLNEQSDKAVDVFIKLLEVDSDTVETHLALGSLFRRRGEVDRAIRIHQNLIARPQLSIQQRKEALMALGQDYMSAGVFDRAERIFLEVVELGGSRDTSSLQGLLAIYQQEKAWEKALDIIKKLEISTGASFHNQAAHYYCEMASQALKINAMDRAIYCIKQAMNVDPESVRASLMNATIEIKEGRYKQAIRSLKRVPQQDAEFLTEIIEPLVLCHKELDSMPDCIHYLEQTLEKHPRASVIFVIADYLRQNKGMDIAIDFVADNLSKHPSIRGLNRLIYWHLESAHGKVREKLQMLYDITSKFLDNKPIYRCGHCGFGGKHLHWHCPSCKQWGRMKPIHGLEGDEGHHHHHH”, the “soluble on expression in E. coli” value was “not soluble”.

Source of the values: the DeepSol protein solubility set.
